According to US20260042859A1 (Stanford University, published 2026):
Numbering of substitutions follows the chain as printed. Numbers in names are those of the source.

Target: T1, human recombinant PILRa-Fc protein (human, UniProt Q9UKJ1 20-196, limits assumed)
T1 construct: Recombinant protein; also called human PILRa-Fc; not shown: Fc part
Test: flow cytometry, PILRa-Fc on Ramos cells expressing FLAG-SMAGP mutant, anti-human-IgG-PE secondary

T1 sequence (Q9UKJ1 20-196 limits assumed): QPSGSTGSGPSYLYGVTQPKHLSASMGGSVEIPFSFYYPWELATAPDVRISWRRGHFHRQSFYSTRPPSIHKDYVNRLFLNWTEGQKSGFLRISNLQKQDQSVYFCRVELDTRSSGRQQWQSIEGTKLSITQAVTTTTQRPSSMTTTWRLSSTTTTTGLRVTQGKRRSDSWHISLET

B1: N-terminus FLAG-tagged mutant SMAGP^T7A,T17A expressed on Ramos cells (other, UniProt Q0VAQ4 1-97, looked up)
chain: MTSLLTAPSPREELMTAPILQPTEALSPEDGASTALIAVVITVVFLTLLSVVILIFFYLYKNKGSYVTYEPTEGEPSAIVQMESDLAKGSEKEEYFI
notes: whole, on cells; Double glycosylation-site mutant; also called T7A and T17A double mutations on SMAGP; not shown: N-terminal FLAG tag
Q: Does B1 bind?
A: Result: no binding

B2: N-terminus FLAG-tagged mutant SMAGP^T6A,T7A expressed on Ramos cells (other, UniProt Q0VAQ4 1-97, looked up)
chain: B1 chain with T6A, A17T
notes: whole, on cells; Double glycosylation-site mutant; not shown: N-terminal FLAG tag
Q: Does B2 bind?
A: Result: no binding

B3: N-terminus FLAG-tagged mutant SMAGP^T7A,S9A expressed on Ramos cells (other, UniProt Q0VAQ4 1-97, looked up)
chain: B1 chain with S9A, A17T
notes: as for B2
Q: Does B3 bind?
A: Result: no binding
